Data reported in US20190338048A1.
Where two headings read alike, the source gives them in different places.

Experiments:
[1] = target: CAT-2200 lambda light chain K129T_V133D; assay: LCCA, SPR
[2] = target: CAT-2200 lambda light chain K129T_V133D; assay: LCCA, SPR; remark: listed apart in the source
[3] = target: CAT-2200 lambda light chain T131K_V133S; assay: LCCA, SPR
[4] = target: CAT-2200 lambda light chain E124Q_T131K_V133S; assay: LCCA, SPR tag read-out
[5] = target: Pertuzumab kappa light chain V133D_Q160E; assay: LCCA, SPR
[6] = target: Pertuzumab kappa light chain Q124E_V133D_L135W; assay: LCCA, SPR tag read-out
[7] = target: Pertuzumab kappa light chain V133D; assay: LCCA, SPR
[8] = target: Pertuzumab kappa light chain V133D_Q160E; assay: LCCA, SPR; remark: listed apart in the source
[9] = target: Pertuzumab kappa light chain S131D_V133G_L135W_T178F; assay: LCCA, SPR tag read-out
[10] = target: Pertuzumab kappa light chain V133I_L135W_S176D_T178E; assay: LCCA, SPR tag read-out
[11] = target: CAT-2200 lambda light chain E124Q_T131R; assay: LCCA, SPR
[12] = target: Pertuzumab kappa light chain S131D_V133G_T178F; assay: LCCA, SPR
[13] = target: CAT-2200 lambda light chain E124Q_T131R; assay: LCCA, SPR; remark: listed apart in the source
[14] = target: Pertuzumab kappa light chain S176E_T178E; assay: LCCA, SPR
[15] = target: Pertuzumab kappa light chain S131E_V133G_T178F; assay: LCCA, SPR
[16] = target: CAT-2200 lambda light chain E124Q_T131K; assay: LCCA, SPR
[17] = target: Pertuzumab kappa light chain S131D_V133G_T178F; assay: LCCA, SPR; remark: listed apart in the source
[18] = target: Pertuzumab kappa light chain S176E_T178E; assay: LCCA, SPR; remark: listed apart in the source
[19] = target: Pertuzumab kappa light chain S131E_V133G_T178F; assay: LCCA, SPR; remark: listed apart in the source
[20] = target: Pertuzumab kappa light chain V133I_S176D_T178E; assay: LCCA, SPR
[21] = target: CAT-2200 lambda light chain E124Q_T131R; assay: LCCA, SPR tag read-out
[22] = target: CAT-2200 lambda light chain E124Q_T131R; assay: LCCA, SPR tag read-out; remark: listed apart in the source
[23] = target: CAT-2200 lambda light chain Y178K; assay: LCCA
[24] = target: Pertuzumab kappa light chain L135W_S176E_T178E; assay: LCCA
[25] = target: CAT-2200 lambda light chain E124Q_T131R; assay: LCCA, SPR; remark: listed apart in the source
[26] = target: Pertuzumab kappa light chain V133L_S176D_T178E; assay: LCCA, SPR
[27] = target: Pertuzumab kappa light chain V133L_S176D_T178E; assay: LCCA, SPR; remark: listed apart in the source
[28] = target: Pertuzumab light chain (kappa) V133D_Q160E, HA-tagged; assay: LCCA
[29] = target: Pertuzumab light chain (kappa) V133D, HA-tagged; assay: LCCA
[30] = target: CAT-2200 light chain (lambda) T131K_V133S, FLAG-tagged; assay: LCCA
[31] = target: Pertuzumab light chain (kappa) V133D_Q160E, HA-tagged; assay: LCCA; remark: listed apart in the source
[32] = target: Pertuzumab light chain (kappa) V133D, HA-tagged; assay: LCCA; remark: listed apart in the source
[33] = target: Pertuzumab light chain (kappa) V133D_Q160E, HA-tagged; assay: LCCA; remark: listed apart in the source
[34] = target: Pertuzumab light chain (kappa) V133D, HA-tagged; assay: LCCA; remark: listed apart in the source
[35] = target: Pertuzumab light chain (kappa) V133D_Q160E, HA-tagged; assay: LCCA; remark: listed apart in the source
[36] = target: CAT-2200 light chain (lambda) E124Q_T131K_V133S, FLAG-tagged; assay: LCCA
[37] = target: Pertuzumab light chain (kappa) V133D, HA-tagged; assay: LCCA; remark: listed apart in the source
[38] = target: CAT-2200 light chain (lambda) E124Q_T131K, FLAG-tagged; assay: LCCA
[39] = target: CAT-2200 light chain (lambda) E124Q_T131K_V133S, FLAG-tagged; assay: LCCA; remark: listed apart in the source
[40] = target: CAT-2200 light chain (lambda) T131K_V133S, FLAG-tagged; assay: LCCA; remark: listed apart in the source

## CAT-2200 Fab heavy chain L143K
[1]
  H1L1:H1L2 normalized median scalar value ln(r1/f1): 0.9
[2]
  H1L1:H1L2 normalized median scalar value ln(r1/f1): 1.55

## Pertuzumab Fab heavy chain S186K
[3]
  H2L2:H2L1 normalized median ratio: 26%
[4]
  H2L2:H2L1 normalized median ratio: 28%
[5]
  H2L2:H2L1 normalized median scalar value ln(r1/f1): 0.22
[6]
  H2L2:H2L1 median scalar value: 0.96 ln(ratio)
  H2L2:H2L1 normalized median ratio: 72%
[7]
  H2L2:H2L1 normalized median scalar value ln(r1/f1): 0.77
[8]
  H2L2:H2L1 normalized median ratio: 74%
  H2L2:H2L1 normalized median scalar value ln(r1/f1): 1.05

## Pertuzumab Fab heavy chain S188K
[9]
  H2L2:H2L1 median scalar value: 1.72 ln(ratio)
  H2L2:H2L1 normalized median ratio: 85%
[10]
  H2L2:H2L1 median scalar value: 2.03 ln(ratio)
  H2L2:H2L1 normalized median ratio: 88%
[11]
  H2L2:H2L1 normalized median ratio: 9%
[12]
  H2L2:H2L1 normalized median scalar value ln(r1/f1): 1.5
[13]
  H2L2:H2L1 normalized median ratio: 16%
[14]
  H2L2:H2L1 normalized median scalar value ln(r1/f1): 2.71
[15]
  H2L2:H2L1 normalized median ratio: 85%
  H2L2:H2L1 normalized median scalar value ln(r1/f1): 1.7
[16]
  H2L2:H2L1 normalized median ratio: 15%
[17]
  H2L2:H2L1 normalized median scalar value ln(r1/f1): 2.22
[18]
  H2L2:H2L1 normalized median scalar value ln(r1/f1): 2.75
[19]
  H2L2:H2L1 normalized median ratio: 84%
  H2L2:H2L1 normalized median scalar value ln(r1/f1): 1.67
[20]
  H2L2:H2L1 normalized median ratio: 91%
  H2L2:H2L1 normalized median scalar value ln(r1/f1): 2.33
[21]
  H2L2:H2L1 normalized median ratio: 15%
[22]
  H2L2:H2L1 normalized median ratio: 12%
[23]
  H2L2:H2L1 normalized median ratio: 8%
[24]
  H2L2:H2L1 median scalar value: 2.55 ln
  H2L2:H2L1 normalized median ratio: 92%

## Pertuzumab Fab heavy chain V177I_S188K
[25]
  H2L2:H2L1 normalized median ratio: 9%
[26]
  H2L2:H2L1 normalized median scalar value ln(r1/f1): 2.15
[27]
  H2L2:H2L1 normalized median scalar value ln(r1/f1): 2.3

## Pertuzumab heavy chain Fab construct L143I_S186K
[28]
  H2L2:H2L1 normalized median scalar value ln(r1/f1): 1.5
[29]
  H2L2:H2L1 normalized median scalar value ln(r1/f1): 0.92
[30]
  H2L2:H2L1 normalized median ratio (H2L1 share): 28%
[31]
  H2L2:H2L1 normalized median scalar value ln(r1/f1): 0.81
[32]
  H2L2:H2L1 normalized median scalar value ln(r1/f1): 0.36
[33]
  H2L2:H2L1 normalized median scalar value ln(r1/f1): 0.76
[34]
  H2L2:H2L1 normalized median scalar value ln(r1/f1): 0.26
[35]
  H2L2:H2L1 normalized median scalar value ln(r1/f1): 1.6
[36]
  H2L2:H2L1 normalized median ratio (H2L1 share): 17%
[37]
  H2L2:H2L1 normalized median scalar value ln(r1/f1): 1.18
[38]
  H2L2:H2L1 normalized median ratio (H2L1 share): 31%

## Pertuzumab heavy chain Fab construct S186K
[28]
  H2L2:H2L1 normalized median scalar value ln(r1/f1): 1.05
[29]
  H2L2:H2L1 normalized median scalar value ln(r1/f1): 0.77
[39]
  H2L2:H2L1 normalized median ratio (H2L1 share): 31%
[31]
  H2L2:H2L1 normalized median scalar value ln(r1/f1): 0.41
[32]
  H2L2:H2L1 normalized median scalar value ln(r1/f1): 0.22
[33]
  H2L2:H2L1 normalized median scalar value ln(r1/f1): 0.22
[34]
  H2L2:H2L1 normalized median scalar value ln(r1/f1): 0.02
[40]
  H2L2:H2L1 normalized median ratio (H2L1 share): 26%
[35]
  H2L2:H2L1 normalized median scalar value ln(r1/f1): 1.27
[36]
  H2L2:H2L1 normalized median ratio (H2L1 share): 22%
[37]
  H2L2:H2L1 normalized median scalar value ln(r1/f1): 0.82
